{"source": "patent US20260250369A1", "about": "“METHODS OF TREATING LIVER FIBROSIS, INFLAMMATION OR ASSOCIATED DISEASES USING AN ANGPTL4 ANTAGONIST” (Nanyang Technological University, priority 2022, published 2026)", "origin": "cited, not measured here", "molecules": {"B1": {"name": "mAb11F6C4: murine monoclonal antibody directed against human cANGPTL4; heavy chain SEQ ID NO 15, light chain SEQ ID NO 16 (antibody, V domains shown)", "VH": "QVQLQESGPGILKPSQTLSLTCSFSGFSLSTSGMGVGWIRQPSGKGLERLAHIWWDDDKYYNPSLKSQLTISKDTSRNQVFLKIISVDTADTATYYCARKDYGSSYDYRGQGTTVTVS", "VL": "DIELTQSPASLAVSLGQRATISCKASQSVDYDGDSYLNRFQQKPGQPPKLLIYTASNLESGIPARFSGSGSGTDFTLNIHPVEEEDAATYYCQQSNEDPWTFGGGTKLEIKR"}}, "biological_target": "T1, human cANGPTL4 (Homo sapiens, UniProt Q9BY76)", "T1 sequence (Q9BY76 186-406 limits assumed)": "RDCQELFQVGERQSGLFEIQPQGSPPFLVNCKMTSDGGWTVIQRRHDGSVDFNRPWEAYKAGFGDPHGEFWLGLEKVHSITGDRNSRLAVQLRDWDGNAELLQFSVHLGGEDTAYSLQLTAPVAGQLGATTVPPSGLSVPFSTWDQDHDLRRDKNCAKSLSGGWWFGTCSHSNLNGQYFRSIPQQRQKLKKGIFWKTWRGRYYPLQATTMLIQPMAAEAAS", "data": [{"molecule": "B1", "values": [{"measurement": "Effect on mitochondrial activities and glucose regulations of ANGPTL4", "value": "does not affect"}, {"measurement": "Epitope targeted", "value": "target an epitope that resides within the C-terminus of human ANGPTL4"}]}]}
